The results in this text go back to IntAct's records for PubMed 18273061.

B1: Protein sprouty homolog 2 (Homo sapiens), O43597 (parent)
chain: MEARAQSGNGSQPLLQTPRDGGRQRGEPDPRDALTQQVHVLSLDQIRAIRNTNEYTEGPTVVPRPGLKPAPRPSTQHKHERLHGLPEHRQPPRLQHSQVHSSARAPLSRSISTVSSGSRSSTRTSTSSSSSEQRLLGSSFSSGPVADGIIRVQPKSELKPGELKPLSKEDLGLHAYRCEDCGKCKCKECTYPRPLPSDWICDKQCLCSAQNVIDYGTCVCCVKGLFYHCSNDDEDNCADNPCSCSQSHCCTRWSAMGVMSLFLPCLWCYLPAKGCLKLCQGCYDRVNRPGCRCKNSNTVCCKVPTVPPRNFEKPT
B2: Vascular endothelial growth factor receptor 1 (Homo sapiens), P17948 (parent)
chain: MVSYWDTGVLLCALLSCLLLTGSSSGSKLKDPELSLKGTQHIMQAGQTLHLQCRGEAAHKWSLPEMVSKESERLSITKSACGRNGKQFCSTLTLNTAQANHTGFYSCKYLAVPTSKKKETESAIYIFISDTGRPFVEMYSEIPEIIHMTEGRELVIPCRVTSPNITVTLKKFPLDTLIPDGKRIIWDSRKGFIISNATYKEIGLLTCEATVNGHLYKTNYLTHRQTNTIIDVQISTPRPVKLLRGHTLVLNCTATTPLNTRVQMTWSYPDEKNKRASVRRRIDQSNSHANIFYSVLTIDKMQNKDKGLYTCRVRSGPSFKSVNTSVHIYDKAFITVKHRKQQVLETVAGKRSYRLSMKVKAFPSPEVVWLKDGLPATEKSARYLTRGYSLIIKDVTEEDAGNYTILLSIKQSNVFKNLTATLIVNVKPQIYEKAVSSFPDPALYPLGSRQILTCTAYGIPQPTIKWFWHPCNHNHSEARCDFCSNNEESFILDADSNMGNRIESITQRMAIIEGKNKMASTLVVADSRISGIYICIASNKVGTVGRNISFYITDVPNGFHVNLEKMPTEGEDLKLSCTVNKFLYRDVTWILLRTVNNRTMHYSISKQKMAITKEHSITLNLTIMNVSLQDSGTYACRARNVYTGEEILQKKEITIRDQEAPYLLRNLSDHTVAISSSTTLDCHANGVPEPQITWFKNNHKIQQEPGIILGPGSSTLFIERVTEEDEGVYHCKATNQKGSVESSAYLTVQGTSDKSNLELITLTCTCVAATLFWLLLTLFIRKMKRSSSEIKTDYLSIIMDPDEVPLDEQCERLPYDASKWEFARERLKLGKSLGRGAFGKVVQASAFGIKKSPTCRTVAVKMLKEGATASEYKALMTELKILTHIGHHLNVVNLLGACTKQGGPLMVIVEYCKYGNLSNYLKSKRDLFFLNKDAALHMEPKKEKMEPGLEQGKKPRLDSVTSSESFASSGFQEDKSLSDVEEEEDSDGFYKEPITMEDLISYSFQVARGMEFLSSRKCIHRDLAARNILLSENNVVKICDFGLARDIYKNPDYVRKGDTRLPLKWMAPESIFDKIYSTKSDVWSYGVLLWEIFSLGGSPYPGVQMDEDFCSRLREGMRMRAPEYSTPEIYQIMLDCWHRDPKERPRFAELVEKLGDLLQANVQQDGKDYIPINAILTGNSGFTYSTPAFSEDFFKESISAPKFNSGSSDDVRYVNAFKFMSLERIKTFEELLPNATSMFDDYQGDSSTLLASPMLKRFTWTDSKPKASLKIDLRVTSKSKESGLSDVSRPSFCHSSCGHVSEGKRRFTYDHAELERKIACCSPPPDYNSVVLYSTPPI

In one assay the parent is B1. Particulars: with cbl_human CBL.
With N53A, the “effect of a mutation on the interaction” value is listed as “disrupting interaction”.

Another assay covers variants of B1. To be noted: with cbl_human CBL. The source holds these as a separate data set.
Regarding P59A, the “effect of a mutation on the interaction” value is listed as “decreasing interaction”.

The variants in the next assay derive from B1. To be noted: with cbl_human CBL. The source holds these as a separate data set.
Take Y55F: the “effect of a mutation on the interaction” value is given as “disrupting interaction”.

The variants in another assay derive from B2. To be noted: with cbl_human CBL.
L1332R: the “effect of a mutation on the interaction” value is reported as “increasing interaction”.

Variants of B2 are the subject of the next assay. To be noted: with cbl_human CBL. This is another data set of the same source.
For the variant V1331N, the “effect of a mutation on the interaction” value is “increasing interaction”.
